For the experiment, the target named is p65 (UniProt Q04206). As to the kind of experiment: pull-down of SFB-tagged RB-N from cells. The note with it: reference: SFB-RB-N wild type; sites S249,T252.

Regarding “RB N-terminal portion (RB-N) (from UniProt P06400) S249A/T252A”, the “binding against the reference” value is “weaker”.

Values taken from paper PMC8968458.
